First the molecules themselves.
B1: Vacuolar protein sorting-associated protein VTA1 (Saccharomyces cerevisiae), Q06263 (parent)
chain: MASNAARVVATAKDFDKVGLGIIGYYLQLYAVELILSEEDRSQEMTALATELLDTIEAFKKEIGGESEAEDSDKSLHVMNTLIHDQEKAKIYMLNFTMSLYNEKLKQLKDGPWDVMLKRSLWCCIDLFSCILHLWKENISETSTNSLQKRIKYCKIYLSKLAKGEIGSSDEKTLDYADFADDSEEIKDEDVDHQTSDLENNNNDKVEGLAPKDQTTSYEPVDEVPEFIDDADSVNEEEQTVDKNEDAITKDEQQVVKKEVDLTRPSAPSEPAAAEHKSYTKDELTKIMDRASKIEQIQKLAKYAISALNYEDLPTAKDELTKALDLLNSI
partner: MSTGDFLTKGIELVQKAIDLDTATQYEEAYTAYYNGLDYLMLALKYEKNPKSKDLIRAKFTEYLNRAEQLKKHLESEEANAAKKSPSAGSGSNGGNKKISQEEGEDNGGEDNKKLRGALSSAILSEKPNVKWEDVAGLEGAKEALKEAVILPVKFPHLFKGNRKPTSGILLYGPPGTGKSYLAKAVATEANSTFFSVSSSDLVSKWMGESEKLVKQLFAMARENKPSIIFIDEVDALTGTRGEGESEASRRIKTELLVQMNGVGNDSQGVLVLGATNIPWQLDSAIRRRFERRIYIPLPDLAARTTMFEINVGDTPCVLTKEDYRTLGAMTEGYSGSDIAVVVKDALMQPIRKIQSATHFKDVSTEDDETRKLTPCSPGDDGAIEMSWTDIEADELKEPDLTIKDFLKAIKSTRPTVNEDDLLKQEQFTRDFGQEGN
B2: Vacuolar protein sorting-associated protein 4 (Saccharomyces cerevisiae), P52917 (parent)
chain: B1 partner
partner: B1 chain

The source of these data is IntAct's records for PubMed 20696398.

Variants of B1 are the subject of the first test. As to conditions: with vps4_yeast VPS4, P52917.
Turning to Y303A, the “effect of a mutation on the interaction” value was “disrupting interaction”. On the same count and under the same terms, to A307D belongs “disrupting interaction”. As for S306R, the “effect of a mutation on the interaction” value was “decreasing interaction”. T315R: the “effect of a mutation on the interaction” value was “decreasing interaction”. Regarding D312A, the “effect of a mutation on the interaction” value is “decreasing interaction”.

Variants of B2 are the subject of the next test. As to conditions: with vta1_yeast VTA1, Q06263.
On to H359D, for which the “effect of a mutation on the interaction” value was “decreasing interaction”.
